Where a chain is given by its changes, count along the chain named.
T1: human VEGF (hVEGF) (human, UniProt P15692 181-395)
T1 construct: also called VEGF-A
T1 sequence: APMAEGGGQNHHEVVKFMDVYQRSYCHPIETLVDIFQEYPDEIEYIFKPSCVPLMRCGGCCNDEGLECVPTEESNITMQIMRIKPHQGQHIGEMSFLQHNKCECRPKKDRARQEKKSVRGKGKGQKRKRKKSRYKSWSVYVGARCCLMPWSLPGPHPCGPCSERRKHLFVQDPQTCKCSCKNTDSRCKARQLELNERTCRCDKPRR

B1: HCcombo (Fab, V domains shown)
VH: EEQLVEEGGGLVQPGESLELSCAASGFEISDYWIHWVRQEPGEGLEWVAGITPAGGYEYYADSVEGRFTISADTSENTAYLQMNELRAEDTAVYYCARFVFFLPYAMDYWGQGELVTVSS
VL: DIQMTQSPSSLSASVGDRVTITCRASQDVSTAVAWYQQKPGKAPKLLIYSASFLYSGVPSRFSGSGSGTDFTLTISSLQPEDFATYYCQQGYGNPFTFGQGTKVEIK
notes: Fab
B2: LCcombo1 (G6.31 WT VH with LCcombo1 VL) (Fab, V domains shown)
VH: EVQLVESGGGLVQPGGSLRLSCAASGFTISDYWIHWVRQAPGKGLEWVAGITPAGGYTYYADSVKGRFTISADTSKNTAYLQMNSLRAEDTAVYYCARFVFFLPYAMDYWGQGTLVTVSS
VL: B1 VL with S9E, R18E, F83A, N94A
notes: Fab
B3: LCcombo2 (G6.31 WT VH with LCcombo2 VL) (Fab, V domains shown)
VH: B2 VH
VL: B1 VL with R18E, K42E, S76E, F83A, N94A
notes: Fab
B4: LCcombo3 (G6.31 WT VH with LCcombo3 VL) (Fab, V domains shown)
VH: B2 VH
VL: B1 VL with S9E, R18E, K42E, F83A, N94A
notes: Fab
B5: LCcombo4 (G6.31 WT VH with LCcombo4 VL) (Fab, V domains shown)
VH: B2 VH
VL: B1 VL with R18E, F83A, N94A
notes: Fab
B6: HCLC2 (Fab, V domains shown)
VH: B1 VH
VL: B1 VL with R18E, K42E, S76E, F83A, N94A
notes: Fab
B7: G6.31 HC-A60M (Fab, name in Kabat numbering, V domains shown)
VH: B2 VH with A61M
VL: B1 VL
notes: Fab
B8: G6.31 HC-I51H (Fab, name in Kabat numbering, V domains shown)
VH: B2 VH with I51H
VL: B1 VL
notes: Fab
B9: G6.31 HC-Q81W (Fab, name in Kabat numbering, V domains shown)
VH: B2 VH with Q82W
VL: B1 VL
notes: Fab
B10: G6.31 HC-S70H (Fab, name in Kabat numbering, V domains shown)
VH: B2 VH with S71H
VL: B1 VL
notes: Fab
B11: G6.31 HC-T73N (Fab, name in Kabat numbering, V domains shown)
VH: B2 VH with T74N
VL: B1 VL
notes: Fab
B12: G6.31 HC-Y58Q (Fab, name in Kabat numbering, V domains shown)
VH: B2 VH with Y59Q
VL: B1 VL
notes: Fab
B13: G6.31 HC-Y59T (Fab, name in Kabat numbering, V domains shown)
VH: B2 VH with Y60T
VL: B1 VL
notes: Fab
B14: G6.31 LC-Q37A (Fab, V domains shown)
VH: B2 VH
VL: B1 VL with Q37A
notes: Fab
B15: G6.31 LC-Q89N (Fab, V domains shown)
VH: B2 VH
VL: B1 VL with Q89N
notes: Fab
B16: G6.31 LC-T97N (Fab, V domains shown)
VH: B2 VH
VL: B1 VL with T97N
notes: Fab
B17: G6.31 HC-T77E (Fab, name in Kabat numbering, V domains shown)
VH: B2 VH with T78E
VL: B1 VL
notes: Fab
B18: G6.31 HC-T77K (Fab, name in Kabat numbering, V domains shown)
VH: B2 VH with T78K
VL: B1 VL
notes: Fab
B19: G6.31 HC-Y56K (Fab, name in Kabat numbering, V domains shown)
VH: B2 VH with Y57K
VL: B1 VL
notes: Fab
B20: G6.31 HC-Y58E (Fab, name in Kabat numbering, V domains shown)
VH: B2 VH with Y59E
VL: B1 VL
notes: Fab
B21: G6.31 LC-A51E (Fab, V domains shown)
VH: B2 VH
VL: B1 VL with A51E
notes: Fab
B22: G6.31 LC-G57E (Fab, V domains shown)
VH: B2 VH
VL: B1 VL with G57E
notes: Fab
B23: G6.31 LC-G93E (Fab, V domains shown)
VH: B2 VH
VL: B1 VL with G93E
notes: Fab
B24: G6.31 LC-P40E (Fab, V domains shown)
VH: B2 VH
VL: B1 VL with P40E
notes: Fab
B25: G6.31 LC-P59E (Fab, V domains shown)
VH: B2 VH
VL: B1 VL with P59E
notes: Fab
B26: G6.31 LC-Q27E (Fab, V domains shown)
VH: B2 VH
VL: B1 VL with Q27E
notes: Fab
B27: G6.31 LC-S50R (Fab, V domains shown)
VH: B2 VH
VL: B1 VL with S50R
notes: Fab
B28: G6.31 LC-S77E (Fab, V domains shown)
VH: B2 VH
VL: B1 VL with S77E
notes: Fab
B29: G6.31 LC-T31R (Fab, V domains shown)
VH: B2 VH
VL: B1 VL with T31R
notes: Fab
B30: G6.31 LC-T72R (Fab, V domains shown)
VH: B2 VH
VL: B1 VL with T72R
notes: Fab
B31: G6.31 LC-Y55E (Fab, V domains shown)
VH: B2 VH
VL: B1 VL with Y55E
notes: Fab
B32: G6.31 LC-Y92E (Fab, V domains shown)
VH: B2 VH
VL: B1 VL with Y92E
notes: Fab

Molecular target: T1, human VEGF (hVEGF)
Assay: SPR
Description: (§1) To determine the binding affinity of selected Fab variants, SPR measurement with a BIACORE® T200 instrument was used. Briefly, series S sensor chip CM5 was activated with 1-ethyl-3-(3-dimethylaminopropyl) carbodiimide (EDC) and N-hydroxysuccinimide (NHS) reagents according to the supplier's instructions, and human VEGF (hVEGF) was coupled to achieve 50-80 response units (RU), then following by blocking un-reacted groups with 1M ethanolamine.
(§2) Three-fold serial dilutions of Fab in HBS-P buffer (0.01 M HEPES pH 7.4, 0.15 M NaCl, 0.005% surfactant P20) from low (0.02 nM) to high (50 nM) were injected (flow rate: 30 μl/min). The binding responses on hVEGF were corrected by subtracting of RU from a blank flow cell. The sensorgram was recorded and subject to reference and buffer subtraction before evaluating by BIACORE® T200 Evaluation Software (version 2.0). Association rates (kₒₙ) and dissociation rates (koff) were calculated using a simple one-to-one Langmuir binding model. The equilibrium dissociation constant (Kd) was calculated as the ratio koff/kₒₙ.

| Binder | Kd [nM] | koff [s⁻¹] | kon [M⁻¹ s⁻¹] |
| --- | --- | --- | --- |
| B1 | 0.134 | 0.000274 | 2.05e+06 |
| B2 | 2.27 | 0.00101 | 447000 |
| B3 | 1.11 | 0.000667 | 599000 |
| B4 | 1.34 | 0.000768 | 574000 |
| B5 | 1.75 | 0.000808 | 463000 |
| B6 | 0.293 | 0.000623 | 2.12e+06 |

Molecular target: T1, human VEGF (hVEGF)
Assay: SPR
Remark: another data set of the same source

| Binder | Kd [nM] | koff [s⁻¹] | kon [M⁻¹ s⁻¹] |
| --- | --- | --- | --- |
| B1 | 0.134 | 0.000274 | 2.05e+06 |
| B6 | 0.293 | 0.000623 | 2.12e+06 |

Molecular target: T1, human VEGF (hVEGF)
Assay: SPR single-cycle;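 on Fold change (relative to G6.31): fab variants injected over hVEGF immobilized on a CM5 chip (Biacore T200), threefold dilution series from 0.02 to 50 nM, kinetics fitted with a 1:1 Langmuir model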
Description: as §1, §2

| Binder | Fold difference (relative to G6.31) [fold] | Kd [nM] | koff [s⁻¹] | kon [M⁻¹ s⁻¹] |
| --- | --- | --- | --- | --- |
| B7 | 0.8 | 1.89 | 0.000729 | 386000 |
| B8 | 2.5 | 0.62 | 0.00152 | 2.48e+06 |
| B9 | 3.4 | 0.45 | 0.000542 | 1.2e+06 |
| B10 | 1.5 | 1 | 0.00066 | 658000 |
| B11 | 1.8 | 0.85 | 0.000575 | 678000 |
| B12 | 1.5 | 1.02 | 0.000358 | 352000 |
| B13 | 0.6 | 2.71 | 0.000974 | 360000 |
| B14 | 1.8 | 0.85 | 0.000515 | 603000 |
| B15 | 3.5 | 0.44 | 0.000435 | 991000 |
| B16 | 0.8 | 1.86 | 0.000802 | 432000 |

Molecular target: T1, human VEGF (hVEGF)
Assay: SPR single-cycle;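 on Fold change (relative to G6.31): fab variants injected over hVEGF immobilized on a CM5 chip (Biacore T200), threefold dilution series from 0.02 to 50 nM, kinetics fitted with a 1:1 Langmuir model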
Remark: another data set of the same source
Description: as §1, §2

| Binder | Fold change (relative to G6.31) [fold] | Kd [nM] | koff [s⁻¹] | kon [M⁻¹ s⁻¹] |
| --- | --- | --- | --- | --- |
| B17 | 0.9 | 1.93 | 0.000477 | 248000 |
| B18 | 7.7 | 0.222 | 0.00045 | 2.03e+06 |
| B19 | 1.8 | 0.965 | 0.000699 | 724000 |
| B20 | 2.7 | 0.62 | 0.000508 | 820000 |
| B21 | 0.6 | 2.68 | 0.000462 | 172000 |
| B22 | 1.7 | 0.974 | 0.000418 | 429000 |
| B23 | 0.3 | 5.98 | 0.00149 | 248000 |
| B24 | 0.1 | 17.9 | 0.000541 | 30300 |
| B25 | 1.1 | 1.56 | 0.000444 | 284000 |
| B26 | 0.9 | 1.96 | 0.00045 | 230000 |
| B27 | 0.9 | 1.89 | 0.000464 | 245000 |
| B28 | 3 | 0.562 | 0.000399 | 711000 |
| B29 | 0.9 | 1.8 | 0.000489 | 271000 |
| B30 | 1.1 | 1.53 | 0.000446 | 292000 |
| B31 | 0.1 | 11.7 | 0.000531 | 45300 |
| B32 | 0.8 | 2.07 | 0.00103 | 497000 |
